Positions count from the first letter of the chain named. In names and notes the source's numbering stands.
Tests used:
canine IL-31Rα (canine) [1] = assay: ELISA, plate coated with cIL-31Rα at 1 µg/mL, detection with HRP anti-dog IgG Fc, OD450/540nm
canine IL-31Rα (canine) [2] = assay: ELISA, plate coated with cIL-31Rα at 1 µg/mL, detection with HRP anti-dog IgG Fc, OD450/540
canine IL-13 = target: T1, canine IL-13 (canine, UniProt Q9N0W9 19-131, limits assumed, biotin-labeled in the OCTET assay); assay: BLI (OCTET HTX), biotin-cIL-13 on SA biosensors
T1 construct: also called cIL-13; canine Interleukin-13
T1 sequence (looked up): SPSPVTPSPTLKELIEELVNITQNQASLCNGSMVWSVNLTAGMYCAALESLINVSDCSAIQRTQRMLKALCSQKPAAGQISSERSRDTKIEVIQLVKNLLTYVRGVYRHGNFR
Protocol: (§1) The binding constants for the cFc fusion proteins provided in Tables 3 and 4 below, were determined using OCTET® HTX. All kinetics measurements were performed by OCTET® HTX using SA® biosensors and DATA ACQUISITION® 12.0 software. 10 μg/mL of biotin-labeled antigen, either canine IL-4 (cIL-4) or canine IL-13 (cIL-13) were loaded onto the SA® biosensors for 120 seconds. Next, the biosensors were placed into 1×pH 7.0 TBS/Casein buffer for 60 seconds for the blocking phase. For the association phase, antigen loaded biosensors were placed into 2-fold serial dilutions from 1 μM down to 15.6 nM of the wild-type, the bispecific, or the FcRn-mutant receptor Fc-fusions that recognized the cIL-4 or cIL-13 antigen in 1×pH 7.0 TBS/Casein buffer for 30 seconds. The last well was buffer alone and that sensor was used for reference sensor subtraction. Finally, the biosensors were placed into 1×pH 7.0 TBS/Casein buffer for 120 seconds for the dissociation phase. The results were then analyzed using Data Analysis 12.0 software and the curves were fitted using a 1:1 binding model.

canine IL-4 [3] = target: T2, canine IL-4 (canine, UniProt O77762 25-132, biotin-labeled in the OCTET assay); assay: cell-based or functional assay
T2 sequence (looked up): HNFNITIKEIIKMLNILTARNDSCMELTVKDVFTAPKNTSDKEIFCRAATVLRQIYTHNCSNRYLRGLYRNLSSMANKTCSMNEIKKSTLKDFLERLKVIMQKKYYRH

canine IL-4 [4] = target: T2, canine IL-4; assay: BLI (OCTET HTX), biotin-cIL-4 on SA biosensors
Protocol: as §1

B1: Caninized 10A12 H1L5 (antibody, V domains shown)
VH: EVQLVESGGDLVKPGGSLRLSCVASGFTFSNYYMAWVRQAPGKGLQWVASISTGGGNTYYRDSVKGRFTISRDNAKNTLYLQMNSLRAEDTAMYYCAKHGTLYFDYWGQGTLVTVSS
VL: QPVLTQPPSLSASLGTTARLTCERSSGDIGDSYVSWYQQKPGSPPRDLLYVDDQRPSGVSKSFSGSKDTSANAGLLLISGLQPEDEADYYCQSYDSNIDGPVFGGGTHLTVLG
In the case of B1, the EC50 (canine IL-31Rα (canine) [1]) is reported as 13.5 ng/mL.

B2: Caninized 10A12 H2L6 (antibody, V domains shown)
VH: B1 VH with V23A, K98R
VL: B1 VL with L48V, L49I, G58E, Y90F
For B2, the EC50 (canine IL-31Rα (canine) [1]) was 0.34 ng/mL.

B3: Caninized 28F12 H1k3 (antibody, V domains shown)
VH: EVQLVESGGDLVKPGGSLRLSCVASGFTFSDYYMAWVRQAPGKGLQWVATISYDGSSTYYRDSVRGRFTISRDNAKNTLYLQMNSLRAEDTAMYYCAKGPLTDWAPNWFAYWGQGTLVTVSS
VL: DIVMTQSPASLSLSQEEKVTITCQTSEDIYSGLAWYQQKPGQAPKLLIYGASRLEDGVPSRFSGSGSGTDFSFTISSLEPEDVAVYFCQQGLKYPNTFGAGTKVELKR
B3 gave an EC50 (canine IL-31Rα (canine) [2]) of 1.74 ng/mL.

B4: Caninized 28F12 H2k2 (antibody, V domains shown)
VH: B3 VH with V23A, K98R
VL: B3 VL with D1E, F87Y
B4 showed an EC50 (canine IL-31Rα (canine) [2]) of 1.74 ng/mL.

B5: Caninized 28F12 H2k3 (antibody, V domains shown)
VH: B3 VH with V23A, K98R
VL: B3 VL
B5 was tested, and the EC50 (canine IL-31Rα (canine) [2]) was 1.74 ng/mL.

B6: Caninized 44E2 H5k1 (antibody, V domains shown)
VH: ELTLQESGPGLVKPSQTLSLTCTVSGFSLTSNGVSWIRQRPGRGLEWMGAISSGGSTYYNSVLKSRISITADTAKNQFSLQLSSMTTEDTAVYYCARRLSGYNYVPFAYWGQGTLVTVSS
VL: EIVMTQSPASLSLSQEEKVTITCKASQNIYKHLAWYQQKPGQAPKLLIYNANSLQTGVPSRFSGSGSGTDFSFTISSLEPEDVAVYYCQQYYSGDTFGAGTKVELKR
In the case of B6, the EC50 (canine IL-31Rα (canine) [2]) is reported as 1.35 ng/mL.

B7: Caninized 44E2 H5k2 (antibody, V domains shown)
VH: B6 VH
VL: B6 VL with V58I, Y87F
Work on B7 yielded an EC50 (canine IL-31Rα (canine) [2]) of 3.97 ng/mL.

B8: Chimeric rat/canine 28F12 (antibody, V domains shown)
VH: EVQLVESDGGLAQPGRSLKLSCAASGFTFSDYYMAWVRQAPTKGLEWVATISYDGSSTYYRDSVRGRFTISRDNAKSTLYLQMDSLRSEDTATYYCARGPLTDWAPNWFAYWGQGTLVTVSS
VL: DIQMTQSPASLSASLGETVTIQCQTSEDIYSGLAWYQQKPGKSPQFLIYGASRLEDGVPSRFSGSGSGTQYSLKISSMQTEDEGVYFCQQGLKYPNTFGAGTKLELKR
Binder B8 has an EC50 (canine IL-31Rα (canine) [2]) of 1.66 ng/mL and an EC50 (read off the curve) (canine IL-31Rα (canine) [2]) of 1 ng/mL.

B9: cIL-13Rα1-cIgGB-Fc-YTE CH2 Numbering (L18Y/A20T/T22E) (Fc fusion)
chain: GGVAAPTETQPPVTNLSVSVENLCTVIWTWDPPEGASPNCTLRYFSHFDNKQDKKIAPETHRSKEVPLNERICLQVGSQCSTNESDNPSILVEKCTPPPEGDPESAVTELQCVWHNLSYMKCTWLPGRNTSPDTNYTLYYWHSSLGKILQCEDIYREGQHIGCSFALTNLKDSSFEQHSVQIVVKDNAGKIRPSFNIVPLTSHVKPDPPHIKRLFFQNGNLYVQWKNPQNFYSRCLSYQVEVNNSQTETNDIFYVEEAKCQNSEFEGNLEGTICFMVPGVLPDTLNTVRIRVRTNKLCYEDDKLWSNWSQAMSIGENTDPTPKRENGRVPRPPDCPKCPAPEMLGGPSVFIFPPKPKDTLYITREPEVTCVVVDLDPEDPEVQISWFVDGKQMQTAKTQPREEQFNGTYRVVSVLPIGHQDWLKGKQFTCKVNNKALPSPIERTISKARGQAHQPSVYVLPPSREELSKNTVSLTCLIKDFFPPDIDVEWQSNGQQEPESKYRTTPPQLDEDGSYFLYSKLSVDKSRWQRGDTFICAVMHEALHNHYTQESLSHSPGK
notes: Homodimer; also called cIL-13Rα1-cFc-YTE
B9 was tested, and the “fold decrease in affinity against the unmodified cIL-13Rα1-cFc” value (canine IL-13) was about 4 fold decrease.

B10: Chimeric rat/canine 10A12 (antibody, V domains shown)
VH: EVQLVESGGGLVKPGRSMKLSCAASGFTFSNYYMAWVRQAPTKGLEWVASISTGGGNTYYRDSVKGRFTISRDNAKRTLYLQMDSLRSEDTATYYCGRHGTLYFDYWGQGVMVTVSS
VL: QFTLTQPKSVSGSLRSTITIPCERSSGDIGDSYVSWYQQHLGRPPINVIYVDDQRPSEVSDRFSGSIDSSSNSASLTITDLQMDDEADYFCQSYDSNIDGPVFGGGTKLTVLG
B10 was tested, and the EC50 (canine IL-31Rα (canine) [1]) was 0.518 ng/mL.

B11: Chimeric rat/canine 44E2 (antibody, V domains shown)
VH: QVQLKESGPGLVQPSQTLSLTCTVSGFSLTSNGVSWVRQPPGKGLEWIAAISSGGSTYYNSVLKSRLSISRDTSKSQVFLKMNSLQTEDTAIYFCTRRLSGYNYVPFAYWGQGTLVTVSS
VL: DIQMTQSPSLLSASVGDRVTLNCKASQNIYKHLAWCQQKLGEPPNLLISNANSLQTGIPSRFSGSGSGTDFTLTISSLQPEDVATYFCQQYYSGDTFGAGTKLELKR
B11 showed an EC50 (canine IL-31Rα (canine) [2]) of 1.37 ng/mL.

B12: cIL-4Rα-13Rα2_ZW1-cFc (Fc fusion)
chain 1: VKVLHEPSCFSDYISTSVCQWKMDHPTNCSAELRLSYQLDFMGSENHTCVPENREDSVCVCSMPIDDAVEADVYQLDLWAGQQLLWSGSFQPSKHVKPRTPGNLTVHPNISHTWLLMWTNPYPTENHLHSELTYMVNVSNDNDPEDFKVYNVTYMGPTLRLAASTLKSGASYSARVRAWAQTYNSTWSDWSPSTTWLNYYEPWEQHLPPKRENGRVPRPPDCPKCPAPEMLGGPSVFIFPPKPKDTLLIARTPEVTCVVVDLDPEDPEVQISWFVDGKQMQTAKTQPREEQFNGTYRVVSVLPIGHQDWLKGKQFTCKVNNKALPSPIERTISKARGQAHQPSVYVYPPSREELSKNTVSLTCLIKDFFPPDIDVEWQSNGQQEPESKYRTTPPQLDEDGSYALVSKLSVDKSRWQRGDTFICAVMHEALHNHYTQESLSHSPGK
chain 2: SMLSNAEIKVNPPQDFEIVDPGYLGYLSLQWQPPLFPDNFKECTIEYELKYRNIDSENWKTIITKNLHYKDGFDLNKGIEAKINTLLPAQCTNGSEVRSSWAETTYWTSPQGNRETKIQDMDCVYYNWQYLVCSWKPGMGVHFDTNYQLFYWYEGLDHSAECTDYIKVNGKNMGCRFPYLESSDYKDFYICVNGSSESQPIRPSYFIFQLQNIVKPMPPDYLSLTVKNSEEINLKWNMPKGPIPAKCFIYEIEFTEDGTTWVTTTVENEIQITRTSNESQKLCFLVRSKVNIYCSDDGIWSEWSDEQCWKGDIWKETPKRENGRVPRPPDCPKCPAPEMLGGPSVFIFPPKPKDTLLIARTPEVTCVVVDLDPEDPEVQISWFVDGKQMQTAKTQPREEQFNGTYRVVSVLPIGHQDWLKGKQFTCKVNNKALPSPIERTISKARGQAHQPSVYVLPPSREELSKNTVSLLCLIKDFFPPDIDVEWQSNGQQEPESKYLTWPPQLDEDGSYFLYSKLSVDKSRWQRGDTFICAVMHEALHNHYTQESLSHSPGK
For B12, the “IC50 for inhibition of cIL-4 mediated STAT6 phosphorylation in DH82 cells, against that of cIL4Rα-cFc or cIL4Rα-IL13Rα1_ZW1-cFc” value (canine IL-4 [3]) was > 3 orders of magnitude higher.

B13: cIL-4Rα-13Rα1_ZW1-cFc (Fc fusion)
chain 1: B12 chain 1
chain 2: B9 chain with Y361L, T363A, E365T, T475L, R503L, T505W
notes: Bispecific heterodimer; also called cIL4Rα-IL13Rα1_ZW1-cFc; cIL-4Rα-IL-13Rα1_ZW1-cFc
In the case of B13, the “fold change of KD against the unmodified cIL-4Rα-cFc homodimer” value (canine IL-4 [4]) is reported as about 10000 fold higher and the “fold tighter binding against the unmodified IL-13Rα1-cFc” value (canine IL-13) is reported as 8 fold tighter.

B14: cIL-13Rα2-cIgGB-Fc-YD CH2 Numbering (L18Y/T22D) (Fc fusion)
chain: B12 chain 2 with L357Y, T361D, L471T, L499R, W501T
notes: Homodimer; also called cIL-13Rα2-cFc-YD
B14 was tested, and the “factor of decrease of KD against the unmodified cIL-13Rα2-cFc” value (canine IL-13) was about 2 fold lower KD.

B15: cIL-13Rα2-cIgGB-Fc-YTE CH2 Numbering (L18Y/A20T/T22E) (Fc fusion)
chain: B12 chain 2 with L357Y, A359T, T361E, L471T, L499R, W501T
notes: Homodimer; also called cIL-13Rα2-cFc-YTE
With B15 the “factor of decrease of KD against the unmodified cIL-13Rα2-cFc” value (canine IL-13) was about 2 fold lower KD.

Source: patent US20240368249A1 (INTERVET, published 2024)
